Results as given in patent EP4703474A1, “ANTI-LRRC15 ANTIBODY” (priority 2023, dated 2024).
Numbering of substitutions follows the chain as printed.

B1: H02L01-PBD (conjugate)
heavy: EVQLVESGGGLVQPGGSLRLSCAASGFTFRDYYMAWVRQAPGKGLEWVSSIGFDESRTYYADSVKGRFTISRDDSKNTLYLQMNSLRAEDTAVYYCARHGVSYYSGDNWFAYWGQGTLVTVSSASTKGPSVFPLAPSSKSTSGGTAALGCLVKDYFPEPVTVSWNSGALTSGVHTFPAVLQSSGLYSLSSVVTVPSSSLGTQTYICNVNHKPSNTKVDKKVEPKSCDKTHTCPPCPAPEAAGGPSVFLFPPKPKDTLMISRTPEVTCVVVDVSHEDPEVKFNWYVDGVEVHNAKTKPREEQYNSTYRVVSVLTVLHQDWLNGKEYKCKVSNKALAAPIEKTISKAKGQPREPQVYTLPPSREEMTKNQVSLTCLVKGFYPSDIAVEWESNGQPENNYKTTPPVLDSDGSFFLYSKLTVDKSRWQQGNVFSCSVMHEALHNHYTQKSLSLSPGK
light: DIQMTQSPSSLSASVGDRVTITCKSSQGLLYSGDQKNYLAWYQQKPGKAPKLLIYWASTRQSGVPSRFSGSGSGTDFTLTISSLQPEDFATYYCQQYYDPPYTFGQGTKVEIKRTVAAPSVFIFPPSDEQLKSGTASVVCLLNNFYPREAKVQWKVDNALQSGNSQESVTEQDSKDSTYSLSSTLTLSKADYEKHKVYACEVTHQGLSSPVTKSFNRGEC
B2: H02L01-V2-PBD (conjugate)
heavy: B1 heavy with Y103R
light: B1 light
B3: H02L01-V1-PBD (conjugate)
heavy: B1 heavy with Y103K
light: B1 light

Experiments:
[1] = system: LRRC15-positive human osteosarcoma cell line HuO9; experiment: In vitro cell growth inhibitory activity (CellTiter-Glo 2.0); format: cell-based; details: 0.0002 to 1.5 µg/mL, 6 days of culture, compared to control hIgG-PBD
Description: (§1) LRRC15-positive human osteosarcoma cell line HuO9 (JCRB) was seeded in 10% FBS-containing RPMI medium at 5 x 10^3 cells/50 μL/well, LRRC15-positive human melanoma cell line Hs294T was seeded in 10% FBS and 20 ng/mL TGFβ1-containing RPMI medium at 5 x 10^3 cells/50 μL/well, or, as a negative control, LRRC15-negative HEK293α was seeded in 10% FBS-containing RPMI medium at 2 x 10^3 cells/50 μL/well in a 96-well plate, and cultured overnight under conditions of 37°C and 5% CO2. The next day, the three types of hR024-drug conjugates (clone names of […]-PBD, […]-V1-PBD, and […]-V2-PBD) prepared in Example 5 and the control hIgG-PBD were diluted at a common ratio of 3 to a final concentration of 0.0002 (μg/mL) from 1.5 (μg/mL) and added. After 6 days of culture, the number of viable cells was measured by quantification of ATP using CellTiter-Glo 2.0 Assay (Promega).

[2] = system: LRRC15-positive human melanoma cell line Hs294T; experiment: as above; format: cell-based; details: 20 ng/mL TGFβ1-containing medium, 0.0002 to 1.5 µg/mL, 6 days of culture, compared to control hIgG-PBD
Description: as §1

[3] = system: LRRC15-negative human lung carcinoma cell line EBC-1; experiment: In vivo antitumor effect, EBC-1 subcutaneous transplant model; details: tail vein, on Day 9, female SCID mice
Description: The antitumor effects of the antibody-drug conjugates were evaluated by using animal models in which cells of the human tumor cell line had been transplanted into immunodeficient mice. 4 to 6 Week-old SCID mice (CB17/Icr-Prkdc[scid]/CrlCrlj, Jackson Laboratory Japan, Inc.) were habituated for 3 days or more under SPF conditions before experimental use. The mice were fed with sterilized solid feed (FR-2, Funabashi Farms Co., Ltd.) and given sterilized tap water (prepared by adding a solution of 5 to 15 ppm sodium hypochlorite). The major and minor diameters of the transplanted tumors were measured twice a week with an electronic digital caliper ([…] Corporation), and the estimated tumor volume was calculated using the following formula. Estimated tumor volume (mm^3) = 1/2 × major diameter (mm) × [minor diameter (mm)]^2 All antibody-drug conjugates were diluted with ABS and administered into the tail vein at doses shown in each Example. In addition, ABS (vehicle) or control hIgG-PBD prepared in Reference Example 4 was administered as the control group, in a similar manner. 5 to 6 Mice were used per group in the experiment. LRRC15-negative human lung carcinoma cell line EBC-1 (JCRB) was suspended in PBS mixed with 50% Matrigel (Corning Incorporated), 1.0 × 10^6 cells were subcutaneously transplanted into the right flank of female SCID mice (Day 0), and random grouping was performed on Day 9. From publicly known information, it is known that in this tumor model, carcinoma cells are LRRC15 negative, and cells in the tumor stroma are LRRC15 positive (International Publication No. 2017/095805). On the day of grouping, a vehicle, the antibody-drug conjugate […]-PBD, […]-V1-PBD, or […]-V2-PBD prepared in Example 5 was administered into the tail vein at a dose of 0.4 mg or 0.2 mg/kg. The abscissa indicates the number of days, and the ordinate indicates estimated tumor volume, and the error bars indicate SEM values. […] The antitumor effects of the antibody-drug conjugates were evaluated by using animal models in which cells of a human tumor cell line had been transplanted into immunodeficient mice, or cells of a mouse tumor cell line had been transplanted into immunocompetent mice. 4 to 6 Week-old SCID mice (CB17/Icr-Prkdc[scid]/CrlCrlj, Jackson Laboratory Japan, Inc.), NSG mice (NOD.Cg-Prkdcscid Il2rgtm1Wjl/SzJ, Jackson Laboratory Japan, Inc.), or B6J mice (C57BL/6J, Jackson Laboratory Japan, Inc.) were habituated for 3 days or more under SPF conditions before experimental use. The mice were fed with sterilized solid feed and given sterilized tap water. The major and minor diameters of the transplanted tumors were measured twice a week with an electronic digital caliper (Mitutoyo Corporation), and the estimated tumor volume was calculated using the following formula. […]

LRRC15-negative HEK293α = experiment: In vitro cell growth inhibitory activity (CellTiter-Glo 2.0), negative control cells; format: cell-based; details: 0.0002 to 1.5 µg/mL, 6 days of culture, compared to control hIgG-PBD
Description: as §1

| Molecule | inhibitory activity against cell growth [1] | inhibitory activity against cell growth [2] | antitumor effect (estimated tumor volume) ([3]; 0.4 mg or 0.2 mg/kg) | inhibitory activity against cell growth (LRRC15-negative HEK293α) | antitumor effect (estimated tumor volume) ([3]; 0.3 mg/kg, huM25-PBD at the same dose) |
| --- | --- | --- | --- | --- | --- |
| B1 | inhibited tumor cell proliferation when added at a lower concentration | inhibited tumor cell proliferation when added at a lower concentration | antitumor activity higher than that of the vehicle group | growth inhibitory activity equivalent to that of the control hIgG-PBD |  |
| B2 | inhibited tumor cell proliferation when added at a lower concentration | inhibited tumor cell proliferation when added at a lower concentration | antitumor activity higher than that of the vehicle group | growth inhibitory activity equivalent to that of the control hIgG-PBD |  |
| B3 | inhibited tumor cell proliferation when added at a lower concentration | inhibited tumor cell proliferation when added at a lower concentration | antitumor activity higher than that of the vehicle group | growth inhibitory activity equivalent to that of the control hIgG-PBD | antitumor activity higher than that of the vehicle and huM25-PBD |
